Results taken from US20130143948A1, “MST1 AS A PROGNOSTIC BIOMARKER AND THERAPEUTIC TARGET IN HUMAN CANCER” (CEDARS-SINAI MEDICAL CENTER, priority 2010, published 2013).

Columns and labels:
LNCaP/Vector cells = assay: BrdU incorporation cell proliferation assay, LNCaP/Vector; format: cell-based; conditions: Dox 4 μg/ml, 24 hr
Description: For in vitro kinase assay, the recombinant, pre-activated MST1 protein kinase was incubated with purified GST-AR DBD/HR fusion protein and 10 μCi ^32P-γ-ATP or 100 μM unlabeled-ATP. The reaction mixture was resolved on SDS-PAGE and autoradiographed. Cell-Death ELISA and BrdU incorporation assays were performed to assess cell death and cell proliferation, respectively, according to the manufacturer's instructions (Roche Molecular Diagnostics).

[1] = system: C4-2/HA-MST1 tumor xenografts; assay: Subcutaneous prostate cancer xenograft in athymic nude mice; format: in vivo
Description: C4-2/Vector or C4-2/HA-MST1 cells mixed with Matrigel (1-to-1 ratio) were inoculated subcutaneously in athymic nude mice (CD-1 nu/nu; Charles River Laboratories, Wilmington, Mass.). 1×10^6 cells/100 μl were used per injection per site (right and left flanks). Mice were treated with Dox (0.5 mg/ml) in drinking water to induce MST1 expression for 12 weeks. Institutional Animal Care and Use Committee (IACUC) policies and guidelines were strictly applied. Tumor volumes were assessed by caliper according to procedures described previously (20). Mice were sacrificed and evaluated for tumor growth anatomically and tumor tissues extracted from mice were fixed in 10% formaldehyde for the construction of histological sections or “snap” frozen at −80° C. The expression of MST1 was verified in histological sections by immunohistochemistry using anti-HA antibody.

[2] = C4-2/HA-MST1 vs C4-2/Vector, Dox in drinking water, 12 weeks

In the case of C[C@H]1c2cccc(O)c2C(=O)C2=C(O)[C@]3(O)C(=O)C(C(N)=O)=C(O)[C@@H](N(C)C)[C@@H]3[C@@H](O)[C@@H]21 [Dox, doxycycline], the “effect on cell growth” value (LNCaP/Vector cells) is reported as “no effect”.

B1: MST1: serine-threonine kinase MST1 (mammalian sterile STE20-like kinase 1), enforced Dox-inducible HA-tagged expression in tumor cells (protein, UniProt Q13043 1-487, looked up)
Serine/threonine-protein …: METVQLRNPPRRQLKKLDEDSLTKQPEEVFDVLEKLGEGSYGSVYKAIHKETGQIVAIKQVPVESDLQEIIKEISIMQQCDSPHVVKYYGSYFKNTDLWIVMEYCGAGSVSDIIRLRNKTLTEDEIATILQSTLKGLEYLHFMRKIHRDIKAGNILLNTEGHAKLADFGVAGQLTDTMAKRNTVIGTPFWMAPEVIQEIGYNCVADIWSLGITAIEMAEGKPPYADIHPMRAIFMIPTNPPPTFRKPELWSDNFTDFVKQCLVKSPEQRATATQLLQHPFVRSAKGVSILRDLINEAMDVKLKRQESQQREVDQDDEENSEEDEMDSGTMVRAVGDEMGTVRVASTMTDGANTMIEHDDTLPSQLGTMVINAEDEEEEGTMKRRDETMQPAKPSFLEYFEQKEKENQINSFGKSVPGPLKNSSDWKIPQDGDYEFLKSWTVEDLQKRLLALDPMMEQEIEEIRQKYQSKRQPILDAIEAKKRRQQNF
modifications: HA tag
notes: serine-threonine kinase MST1 (mammalian sterile STE20-like kinase 1), enforced Dox-inducible HA-tagged expression in tumor cells
B1 was tested, and the “mice that developed tumors” value ([1]; 12 weeks after subcutaneous inoculation, 10 mice per group) was 2 out of 10, the “suppression of tumor growth” value [1, 2] was 35 fold and the “suppression of tumorigenic rates” value [1, 2] was 4 fold.
